Laboratory results: PMC10385375, “In Situ Monitoring of Aptamer–Protein Binding on a ZnO Surface Using Spectroscopic Ellipsometry”

Biological target: SARS-CoV-2 spike protein (SARS-CoV-2, UniProt P0DTC2)
Assay: spectroscopic ellipsometry, immobilised aptamer; PBS (137 mM NaCl, 2.7 mM KCl, 10 mM phosphate, pH 7.4); […]
Settings: protein: commercial; chain copies: 3

B1: spike aptamer (ssDNA)
DNA: CAGCACCGACCTTGTGCTTTGGGAGTGCTGGTCCAAGGGCGTTAATGGACA
modifications: 5' amine
  binding result: binds
